# Laboratory results from PMC6862768 (Nature, 2019).
# B1: full-length chicken STING, cGAMP-bound (natural protein, UniProt E1C7U0 1-379, looked up)
# chain: MPQDPSTRSSPARLLIPEPRAGRARHAACVLLAVCFVVLFLSGEPLAPIIRSVCTQLAALQLGVLLKGCCCLAEEIFHLHSRHHGSLWQVLCSCFPPRWYLALLLVGGSAYLDPPEDNGHSPRLALTLSCLCQLLVLALGLQKLSAVEVSELTESSKKNVAHGLAWSYYIGYLKVVLPRLKECMEELSRTNPMLRAHRDTWKLHILVPLGCDIWDDLEKADSNIQYLADLPETILTRAGIKRRVYKHSLYVIRDKDNKLRPCVLEFASPLQTLCAMSQDDCAAFSREQRLEQARLFYRSLRDILGSSKECAGLYRLIAYEEPAEPESHFLSGLILWHLQQQQREEYMVQEELPLGTSSVELSLQVSSSDLPQPLRSDCP
# Biological target: the molecule itself
# Assay: cryo-EM structure
protein,measurement,value
B1,stoichiometry N,2
